From patent WO2021226442A2 (dated 2021) come the findings set out here.

Where a chain is given by its changes, count along the chain named. Numbers in names are those of the source.

Assay [1] has as its target T1, human complement component C3 (human, UniProt P01024 23-667; P01024 672-1663).
T1 construct: Purified human C3 (Complement Technologies); also called human C3
The assay can be described thus: SPR (Biacore). In general terms: SPR reads the build-up and loss of mass on a sensor chip optically.

The target in assay [2] is T1, human complement component C3. The assay can be described thus: cell-based or functional assay.
Assay [3] has as its target T2, cynomolgus monkey complement component C3 (cynomolgus monkey, UniProt P01024 24-1663 (human entry)).
T2 construct: In the hemolysis assays cyno serum was the source of C3; also called cyno C3
The assay can be described thus: SPR (Biacore), antibody captured, C3 injected, 37 C.

Assay [4] addresses T1, human complement component C3. Described as above.
Assay [5] has the same target. The assay can be described thus: SPR (Biacore), compared with Hz38G10.
Assay [6] concerns the target T2, cynomolgus monkey complement component …. The assay can be described thus: SPR (Biacore), antibody captured by anti-Fc on CM5 chip, C3 injected 0.62-40 nM, 37 C.
Assay [7] addresses T1, human complement component C3. Described as above.

As usually defined, the Kd is the constant that tells how readily two partners part at equilibrium.

T2 sequence (P01024 other isoform, or with tags, fused parts or gaps): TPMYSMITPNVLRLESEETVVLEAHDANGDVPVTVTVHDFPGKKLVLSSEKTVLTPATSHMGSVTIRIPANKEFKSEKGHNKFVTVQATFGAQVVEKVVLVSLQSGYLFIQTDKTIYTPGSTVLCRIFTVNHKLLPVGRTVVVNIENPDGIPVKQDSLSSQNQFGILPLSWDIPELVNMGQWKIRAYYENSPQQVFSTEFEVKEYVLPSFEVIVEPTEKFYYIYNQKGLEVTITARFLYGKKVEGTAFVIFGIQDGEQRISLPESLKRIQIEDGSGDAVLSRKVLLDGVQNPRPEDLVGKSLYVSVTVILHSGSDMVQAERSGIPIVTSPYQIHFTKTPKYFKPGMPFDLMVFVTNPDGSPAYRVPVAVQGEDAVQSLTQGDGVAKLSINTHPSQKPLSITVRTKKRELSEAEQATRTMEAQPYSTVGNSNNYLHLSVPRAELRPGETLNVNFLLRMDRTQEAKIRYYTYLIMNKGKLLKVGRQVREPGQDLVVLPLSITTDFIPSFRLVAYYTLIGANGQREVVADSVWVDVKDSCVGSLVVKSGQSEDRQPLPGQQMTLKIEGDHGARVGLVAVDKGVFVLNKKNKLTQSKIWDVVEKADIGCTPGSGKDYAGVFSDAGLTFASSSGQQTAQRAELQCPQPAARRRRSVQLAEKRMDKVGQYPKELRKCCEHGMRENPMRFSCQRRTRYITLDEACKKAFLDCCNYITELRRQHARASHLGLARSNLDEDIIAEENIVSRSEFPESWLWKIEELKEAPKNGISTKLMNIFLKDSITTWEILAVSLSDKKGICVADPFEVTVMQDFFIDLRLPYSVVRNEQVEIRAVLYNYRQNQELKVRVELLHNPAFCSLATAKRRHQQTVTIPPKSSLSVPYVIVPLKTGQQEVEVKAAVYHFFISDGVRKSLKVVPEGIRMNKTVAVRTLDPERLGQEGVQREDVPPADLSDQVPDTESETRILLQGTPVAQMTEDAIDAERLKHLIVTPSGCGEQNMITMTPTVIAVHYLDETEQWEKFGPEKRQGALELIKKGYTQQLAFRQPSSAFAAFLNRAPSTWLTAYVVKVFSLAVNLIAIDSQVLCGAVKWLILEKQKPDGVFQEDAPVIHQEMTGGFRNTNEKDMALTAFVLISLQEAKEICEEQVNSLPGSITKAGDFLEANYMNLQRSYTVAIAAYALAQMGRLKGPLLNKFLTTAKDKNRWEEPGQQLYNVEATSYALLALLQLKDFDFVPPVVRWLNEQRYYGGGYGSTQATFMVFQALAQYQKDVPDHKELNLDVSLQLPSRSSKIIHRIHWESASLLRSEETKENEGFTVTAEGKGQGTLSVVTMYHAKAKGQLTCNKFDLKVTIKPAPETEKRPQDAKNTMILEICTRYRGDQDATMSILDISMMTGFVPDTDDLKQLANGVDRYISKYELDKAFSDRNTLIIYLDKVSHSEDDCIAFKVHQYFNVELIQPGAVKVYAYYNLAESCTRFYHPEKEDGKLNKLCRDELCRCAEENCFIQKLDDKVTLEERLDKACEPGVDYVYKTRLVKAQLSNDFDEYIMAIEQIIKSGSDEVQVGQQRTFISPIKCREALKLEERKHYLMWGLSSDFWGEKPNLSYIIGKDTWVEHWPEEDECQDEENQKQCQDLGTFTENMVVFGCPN
T1 sequence (P01024 23-667, chain 1 of 2): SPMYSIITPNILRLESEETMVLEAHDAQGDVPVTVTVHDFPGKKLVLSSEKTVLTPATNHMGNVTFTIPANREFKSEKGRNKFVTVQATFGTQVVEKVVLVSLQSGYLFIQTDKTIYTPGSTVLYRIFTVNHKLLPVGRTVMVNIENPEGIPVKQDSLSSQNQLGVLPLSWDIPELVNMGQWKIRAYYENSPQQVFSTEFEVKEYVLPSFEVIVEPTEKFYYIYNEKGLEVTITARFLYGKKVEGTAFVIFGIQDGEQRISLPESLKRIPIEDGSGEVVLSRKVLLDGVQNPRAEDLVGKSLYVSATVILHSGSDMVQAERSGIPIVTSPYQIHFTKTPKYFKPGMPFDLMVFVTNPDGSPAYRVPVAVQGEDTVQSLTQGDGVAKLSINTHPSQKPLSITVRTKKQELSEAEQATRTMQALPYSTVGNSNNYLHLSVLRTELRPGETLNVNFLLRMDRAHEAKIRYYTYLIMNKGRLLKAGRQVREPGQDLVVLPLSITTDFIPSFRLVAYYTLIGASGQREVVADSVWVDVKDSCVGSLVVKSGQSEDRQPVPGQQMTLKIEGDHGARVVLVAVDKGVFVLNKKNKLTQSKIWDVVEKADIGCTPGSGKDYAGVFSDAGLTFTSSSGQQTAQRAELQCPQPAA
T1 sequence (P01024 672-1663, chain 2 of 2): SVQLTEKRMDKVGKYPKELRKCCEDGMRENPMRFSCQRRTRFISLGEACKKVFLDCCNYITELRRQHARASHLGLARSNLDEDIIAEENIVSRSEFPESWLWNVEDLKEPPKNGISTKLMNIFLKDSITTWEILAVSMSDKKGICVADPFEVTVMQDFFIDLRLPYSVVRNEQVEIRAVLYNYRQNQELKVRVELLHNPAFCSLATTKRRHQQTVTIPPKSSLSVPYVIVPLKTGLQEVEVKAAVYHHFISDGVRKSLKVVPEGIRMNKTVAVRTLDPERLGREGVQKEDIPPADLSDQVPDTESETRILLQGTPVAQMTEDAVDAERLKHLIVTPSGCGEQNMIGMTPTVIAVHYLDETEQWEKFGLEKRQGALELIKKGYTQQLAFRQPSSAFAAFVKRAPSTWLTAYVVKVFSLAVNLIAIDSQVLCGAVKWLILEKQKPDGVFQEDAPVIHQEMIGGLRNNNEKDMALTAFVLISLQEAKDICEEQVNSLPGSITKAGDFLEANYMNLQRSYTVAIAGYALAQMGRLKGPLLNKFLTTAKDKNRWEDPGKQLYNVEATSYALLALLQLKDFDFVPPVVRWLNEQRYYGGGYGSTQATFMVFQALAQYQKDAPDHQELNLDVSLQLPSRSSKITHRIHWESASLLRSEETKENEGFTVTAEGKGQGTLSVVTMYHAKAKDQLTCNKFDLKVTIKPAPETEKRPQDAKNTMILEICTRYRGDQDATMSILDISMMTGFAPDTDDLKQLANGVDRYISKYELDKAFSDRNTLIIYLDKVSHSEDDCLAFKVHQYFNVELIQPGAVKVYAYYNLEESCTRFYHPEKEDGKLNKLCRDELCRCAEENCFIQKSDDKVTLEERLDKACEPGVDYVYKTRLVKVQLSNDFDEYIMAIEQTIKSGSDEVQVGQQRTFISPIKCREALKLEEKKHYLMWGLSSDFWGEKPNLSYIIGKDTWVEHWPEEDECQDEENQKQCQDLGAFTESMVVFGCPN

B1: Hz38G10 dsscFv (VL-linker-VH disulfide-stabilized scFv) (scFv)
scFv: MDIQMTQSPSSLSASVGDRVTITCKASENVDTYVSWYQQKPGKAPKLLIYGASNRYTGVPSRFSGSGSGTDFTFTISSLQPEDIATYHCGQSHSYPLTFGCGTKLEIKGGGGSGGGGSGGGGSQVQLVQSGAEVKKPGASVKVSCKASGYTFTDFYMDWVRQAPGQCLEWMGYIYPHNGGTTYNQQFTGRVTITVDKSASTAYMELSSLRSEDTAVYYCARRGGFDFDYWGQGTLVTVSS
notes: scFv with an engineered disulfide bond between VL and VH; also called Hz38G10 VL-linker-VH dsscFv
With B1, the binding result in assay [1] was “binds”.

B2: antibody Hz38G10 (antibody, human IgG1, kappa, V domains shown)
VH: QVQLVQSGAEVKKPGASVKVSCKASGYTFTDFYMDWVRQAPGQRLEWMGYIYPHNGGTTYNQQFTGRVTITVDKSASTAYMELSSLRSEDTAVYYCARRGGFDFDYWGQGTLVTVSS
VL: DIQMTQSPSSLSASVGDRVTITCKASENVDTYVSWYQQKPGKAPKLLIYGASNRYTGVPSRFSGSGSGTDFTFTISSLQPEDIATYHCGQSHSYPLTFGQGTKLEIKR
notes: also called humanized 38G10; Hz38G10 intact antibody
For the molecule B2, the “alternative pathway hemolysis assay, fold against COMP or COMP-PEG” value in assay [2] is roughly 10 fold. For the same molecule, the figures for the Kd in assay [3] and in assay [4] were 1.8 nM and 0.3 nM, respectively.

B3: variant of antibody Hz38G10 with a N55D mutation in the heavy chain CDR2 (antibody, V domains shown)
VH: B2 VH with N55D
VL: DIQMTQSPSSLSASVGDRVTITCKASENVDTYVSWYQQKPGKAPKLLIYGASNRYTGVPSRFSGSGSGTDFTFTISSLQPEDIATYHCGQSHSYPLTFGQGTKLEIK
notes: Mimics a fully deamidated molecule; also called Hz38G10 N55D variant
Take B3: the binding result in assay [1] was “binds”.

B4: antibody Hz38G10(G56A) (antibody, human IgG1, kappa, V domains shown)
VH: B2 VH with G56A
VL: B2 VL
On to B4, for which the binding result in assay [5] was “binds”.

B5: antibody Hz38G10(G56T) (antibody, V domains shown)
VH: B2 VH with G56T
VL: B3 VL
Take B5: the binding result in assay [5] is reported as “binds”.

B6: antibody Hz38G10(N55E) (antibody, V domains shown)
VH: B2 VH with N55E
VL: B3 VL
Regarding B6, the binding result in assay [5] was “binds”.

B7: antibody Hz38G10(N55Q) (antibody, V domains shown)
VH: B2 VH with N55Q
VL: B3 VL
For B7, the binding result in assay [5] was “binds”.

B8: antibody 38G10 (antibody, V domains shown)
VH: EVQLQQSGPELVKPGDSVKMSCKASGYTFTDFYMDWVKQSHGKSLEWIGYIYPHNGGTTYNQNFTGKATLTVDKSSNTAYMELHSLTSEDSAVYYCARRGGFDFDYWGQGTTLTVSS
VL: NIVMTQSPKSMSLSVGERVTLRCKASENVDTYVSWYQQKPEQSPKLLIYGASNRYTGVPDRFTGSGSATEFTLTISSVQAEDLVGYHCGQSHSYPLTFGAGTKLELK
notes: Mouse hybridoma monoclonal antibody; also called parental 38G10 antibody
Take B8: the Kd in assay [3] is roughly 0.1 nM; in assay [4], roughly 0.1 nM; in assay [6] it was 0.16 nM; in assay [7] it was 0.19 nM.
